How the values were obtained:
[1] = molecular target: the molecule itself; assay: single-molecule pulldown (SiMPull) with photobleaching step counting; SEC-purified mVenus-tagged TMC-1 complex (Flag peptide elution) diluted 1:200, captured on biotinylated anti-GFP nanobody on streptavidin/PEG slides, TIRF; 20 mM Tris pH 8.0, 150 mM NaCl, 0.02% GDN, 3 mM CaCl2; 600 molecules from 3 movies
[2] = molecular target: the molecule itself; assay: cryo-EM structure; native TMC-1 complex in GDN, 20 mM Tris-Cl pH 8.5, 150 mM NaCl, 3 mM CaCl2, on 2 nm carbon-coated grids; one dataset, three classes: expanded, contracted, with ARRD-6

B1: transmembrane channel-like protein 1 (TMC-1) with C-terminal mVenus and 3×Flag tag, from tmc-1::mVenus knock-in worms (natural protein, C. elegans, UniProt D3KZG3 1-1285, looked up)
chain: MQEAARRASLRKEHTPTNEKFGDLSKQDSLGERASSKLTLDDELYDILYAFGETDAFINKGDKQRETDEDGNPLTRQALLERIRQKKEVIGKLRCQAWSMTRKRRTLKLAQKYLEQHESKVSRSHLYMEEMRKRARLMKRSFSNFKTYLIPWESKIKRIESHFGSVVSSYFTFLRWIVFVNIMITLIALVFVVLPETLADSVANEGRFNRTKTRKQIPANERVHADELAVVWHYDGYLRYSPLFYGYYSDDPFLGNKIKYALPLAYFMVTLTIFAYSFFAILRKMAANARMSKLSGSKAEQYIFNWKLFTGWDYTIGNSETASNTVMAVVIKLRESIADIKKDAHGKFRLLQFSLRVFANIIICAMLGFSIYCIIFAVQKSQVQDDGNLFTKNQVPSVVSTITHVFPMIFDLIGKMENYHPRTALRAHLGRVLILYTVNYITLIFALFEKMTALRDRVNSTSTSSSHRTKRQQGGWNPNMQRPPPYASRAEVRQMSDFLAANTRRFQTVSQRTTRSVTTPFTVAPQFGPFNVNNPNAVFHNGTHSTSFESQILGPKALPIFTPPPRKYPGFTPGNVGQQFGGPDFPRNQVYTKSTPLPRVRTKPPWVYTTTHPPLVQNRAMTTTMSKSAKKGNSKNLDDDILLSNETIQMSEAALRRNHDGHNNDICWETIIGQEIVKLVTMDLIFTILSILVIDLFRGLWIKYCSSWWCWDIETTFPEYGEFKVAENVLHIINNQGMIWLGLFFAPLLPAINNIKLIILMYIRGWAVMTCNVPAREIFRASRSSNFYLGILLIWLLLCTLPVGFVIASMSPSRSCGPFARYQHFYTVVTREIEKRVDQTVLSYIRHIASPGVVIPIILFLILIIYFLFSLVRGLREANTDLQAQLVHERTEEKKKIFELAGGKKNKFEKDRDKKRSNDYIPLIEQRRREPWRQYHEMEADHALASDSSEESDINEDEDDERQPLTAYPLRAIETPPETLQVTAFHPSLGSLIENREMEDEESASGDQLPMIHKSVSFQGPSHMQMRQSISTESCSQISRSAIQVATPEEIRALLRPYLEAKYGIPYQHGIKSFPIDVHTPPNNTPSRRSSKYNSFVSLYEHTRDDHKNFVASTIKETDEDPGKSDKKQTSSKDVAPDFMPWPSADEARALREKMKSKTPLMLTKTTVEEKPKGGKSSESEFRPPVPIHRKYNIQTTEEENEEEETDSAPESSKKRFRISVSPTKTIAPASASRAQHKIVSQASSSSSIPHGRQPDPNKKASLVLPPLRAPRVQFDEDDSPRQID
notes: TMC-1, C. elegans, endogenous gene (Wormbase T13G4.3.1); mVenus-3×Flag inserted immediately before the stop codon, PreScission (3C) site between the C terminus of TMC-1 and mVenus; residues M1 to D1285; that sample was afterwards eluted by 3C cleavage and run on SEC) and as imaged in SiMPull (Flag peptide elution, mVenus kept); also called TMC-1-mVenus-3×Flag; mVenus-tagged TMC-1; source: …
- stoichiometry N [1]: 2

B2: transmembrane channel-like protein 1 (TMC-1), native, after 3C protease elution (natural protein, C. elegans, UniProt D3KZG3 1-1285, looked up)
chain: MQEAARRASLRKEHTPTNEKFGDLSKQDSLGERASSKLTLDDELYDILYAFGETDAFINKGDKQRETDEDGNPLTRQALLERIRQKKEVIGKLRCQAWSMTRKRRTLKLAQKYLEQHESKVSRSHLYMEEMRKRARLMKRSFSNFKTYLIPWESKIKRIESHFGSVVSSYFTFLRWIVFVNIMITLIALVFVVLPETLADSVANEGRFNRTKTRKQIPANERVHADELAVVWHYDGYLRYSPLFYGYYSDDPFLGNKIKYALPLAYFMVTLTIFAYSFFAILRKMAANARMSKLSGSKAEQYIFNWKLFTGWDYTIGNSETASNTVMAVVIKLRESIADIKKDAHGKFRLLQFSLRVFANIIICAMLGFSIYCIIFAVQKSQVQDDGNLFTKNQVPSVVSTITHVFPMIFDLIGKMENYHPRTALRAHLGRVLILYTVNYITLIFALFEKMTALRDRVNSTSTSSSHRTKRQQGGWNPNMQRPPPYASRAEVRQMSDFLAANTRRFQTVSQRTTRSVTTPFTVAPQFGPFNVNNPNAVFHNGTHSTSFESQILGPKALPIFTPPPRKYPGFTPGNVGQQFGGPDFPRNQVYTKSTPLPRVRTKPPWVYTTTHPPLVQNRAMTTTMSKSAKKGNSKNLDDDILLSNETIQMSEAALRRNHDGHNNDICWETIIGQEIVKLVTMDLIFTILSILVIDLFRGLWIKYCSSWWCWDIETTFPEYGEFKVAENVLHIINNQGMIWLGLFFAPLLPAINNIKLIILMYIRGWAVMTCNVPAREIFRASRSSNFYLGILLIWLLLCTLPVGFVIASMSPSRSCGPFARYQHFYTVVTREIEKRVDQTVLSYIRHIASPGVVIPIILFLILIIYFLFSLVRGLREANTDLQAQLVHERTEEKKKIFELAGGKKNKFEKDRDKKRSNDYIPLIEQRRREPWRQYHEMEADHALASDSSEESDINEDEDDERQPLTAYPLRAIETPPETLQVTAFHPSLGSLIENREMEDEESASGDQLPMIHKSVSFQGPSHMQMRQSISTESCSQISRSAIQVATPEEIRALLRPYLEAKYGIPYQHGIKSFPIDVHTPPNNTPSRRSSKYNSFVSLYEHTRDDHKNFVASTIKETDEDPGKSDKKQTSSKDVAPDFMPWPSADEARALREKMKSKTPLMLTKTTVEEKPKGGKSSESEFRPPVPIHRKYNIQTTEEENEEEETDSAPESSKKRFRISVSPTKTIAPASASRAQHKIVSQASSSSSIPHGRQPDPNKKASLVLPPLRAPRVQFDEDDSPRQID
modifications: N-glycan at N209
notes: TMC-1, C. elegans, endogenous gene (Wormbase T13G4.3.1); residues M1 to D1285; not modelled: M1-P73, S460-N663, L886-D1285; Residues of the 3C site may remain at the C terminus after cleavage; Two copies stand in the complex (two-fold symmetric dimer); also called TMC-1 subunit; TMC-1 protomer; source: endogenous tmc-1 locus, tmc-1::mVenus knock-in worms; purified (anti-Flag M2 resin, 3C protease …)
- stoichiometry N [2]: 2
